Data taken from a protein production outcome set (Wang et al. 2014).

Experiment: label from the status in PepcDB records
In the case of “MYLLTFILIRINKYSDKAKKSAILVLLFLSLGAILKILEIADPSVKMDYIIQLVYSLTVFGAFVALSFYIKFLETPPSLTVHHSTKLPKNGGSEPKLVGAYLVSGSRSRIVDLINMIRELNAPILVFTRYPTFYQDLGENIKVIWITQASEDGIPPTKLHVIQDYAIKFAKENKYAVVIIDCVEYLLLYNEFASVFKFLASLKDYLIMMNSALVLAVDEKALDEKYYTLLLNEFEPL”, the protein production is reported as “failed”. With “MYLQCYINEKGEKVYTTKKESPLGLATESAHPARFSPDDKYSKQRVLLKKRFGLLPTQNAPLQY” the protein production was “failed”. For “MYMAQPGHIDHIKQINAGRVYKLIDQKGPISRIDLSKESELAPASITKITRELIDAHLIHETTVQEAISRGRPAVGLQTNNLGWQFLSMRLGRGYLTIALHELGGEVLIDTKIDIHEIDQDDVLARLLFEIEEFFQTYAAQLDRVTSIAITLPGLVNSEQGIVLQMPHYNVKNLALGPEIYKATGLPVFVANDTRAWALAEKLFGHSQDVDNSVLISIHHGLGAGIVLDGRVLQGRHGNIGELGHIQIDPQGKRCHCGNYGCLETVASSQAIRDQVTARIQAGEPSCLATVEEISIEDICAAAADGDPLAVDVIQQLGRYLGAAIAIVINLFNPEKILIGGVINQAKSILYPSIEQCIREQSLPVYHQDLKLVESRFYKQATMPGAALIKQALYDGLLLMKVVEG”, the protein production was “not failed”. In the case of “MYPKQFLKFGETSLFQETVLRCLEVSDISEVFVVTNEAQKFFVIGQIKEAGYSIPPENILIEPEGKNTLPAIFFGMKEIEKKFGDSIVGVFSSDHVLDRAAMATISSAENLASDYLVTFGVVPTFPHTGYGYIKASEACSPGYRVSEFREKPDFETAKKYIEEGCLWNSGMFLFETRLFFEEARKHAPSVYGCFEKEGDINQIYECVDNISIDYGIMEKSDKVAVVRLDHKWSDLGNFAAIYDELEKDSVGNVIHDCDPMLLNSDGNLVYSRCGKIVSLIDVKDMVVVDTSDALLICPKSSSQKVKEIVSELKGRKDERAFIGQTVYRPWGSYTLLDASPGHKIKNITVLSDHKLSLQLHYHRSEHWVVVKGMACVEVDGKQFFLGPGESTFIRAGQKHRLSNPGKLPLEIIEVQLGELVDEEDIVRFDDVYGRRLEHHHHHH”, the protein production is reported as “not failed”. For “MYPVDLHMHTVASTHAYSTLSDYIAQAKQKGIKLFAITDHGPDMEDAPHHWHFINMRIWPRVVDGVGILRGIEANIKNVDGEIDCSGKMFDSLDLIIAGFHEPVFAPHDKATNTQAMIATIASGNVHIISHPGNPKYEIDVKAVAEAAAKHQVALEINNSSFLHSRKGSEDNCREVAAAVRDAGGWVALGSDSHTAFTMGEFEECLKILDAVDFPPERILNVSPRRLLNFLESRGMAPIAEFADL”, the protein production was “not failed”. In the case of “MYQKFKGGDLMIHGGDIYTEGVFKGRELLDYSSNINPLGIPKSFLNNIDEGIKNLGVYPDVNYRRLNKSIENYLKLKDIGIVLGNGASEIIELSISLFEKILIIVPSYAEYEINAKKHGVSVVFSYLDENMCIDYEDIISKIDDVDSVIIGNPNNPNGGLINKEKFIHVLKLAEEKKKTIIIDEAFIEFTGDPSSSFVGEIKNYSCLFIIRAMTKFFAMPGIRFGYGITNNKEIAAKIKAKQNPWNINCFAEMAAINCLKDTNYIEESLLWIKKERKRFIEELNKIGFIKRVFSPHANFVLCRLENISGEKLYDSLLKEDIVIRRCCNFIGLDDSFVRFAIKDEKKNTKFLRALKGVENNL”, the protein production is reported as “not failed”. In the case of “MYQVVASDLDGTLLSPDHFLTPYAKETLKLLTARGINFVFATGRHYIDVGQIRDNLGIRSYMITSNGARVHDSDGQQIFAHNLDRDIAADLFEIVRNDPKIVTNVYREDEWYMNRHRPEEMRFFKEAVFNYKLYEPGELDPQGISKVFFTCEDHEHLLPLEQAMNARWGDRVNVSFSTLTCLEVMAGGVSKGHALEAVAKMLGYTLSDCIAFGDGMNDAEMLSMAGKGCIMANAHQRLKDLHPELEVIGSNADDAVPRYLRKLYLD”, the protein production is reported as “not failed”. For “MYRDRIRLPSLMSKVMSAADAAALIEDGMTVGMSGFTRAGEAKAVPHALAERAKVTPLKISLMTGASLGNDLDKQLTESGVLSRRMPFQVDSTLRKAINNGTVMFIDQHLSDTVELLRNRQIKAVDLAVIECVAITEEGHLVLSTSVGNSASFAILAKQVIVEINLSQPLELEGLHDIYIPSYRPTRLPIPVLEADSRIGSHAVKIDPAKIVGIVISNQPDSPSTVTPPDADTQAIANHLVEFFKKEVREDRLTDKLMPLQAGIGNIANAVMHGLLESPFTDLTMYSEVLQDSTFDLFDAGKLTFASGSSMTLSAAKHAEVFADFNRYKSRLVLRPQEISNHPEVIRRLGIIGINTALEFDLYGNVNSTHICGTRMMNGIGGSGDFSRNAHLAIFVTKSIAKGGAISSVVPMVSHVDHTEHDVDILVTEQGLADLRGLAPRERARVIIDNCVHADYRDALNAYFDAACALGGHTPHILREALSWHINLEENGRMLPT”, the protein production was “failed”. For “MYTRLLVVSLACLLFGVSAFAQPMAPVPDAPLRNAALRMKDKDYRAVRDELRSVPPSPERTFLDGVAARRLEQWPEASELLGVAAKDLPLLADYALFWQAEALMAATRYDEAEEVLQRLVGTWPDSPTLRKARMLLADAQFARKEYRQALASYIRFIELYPSGTDSVTANLKTALCREGLDDPRRAVQELRAIWLAYPASPVAETAEQELKRLEALGFPAVPLTPDELLKRGTTLYNLGKYERALAVFNTIPLKEQLAGFNDRVALKIGETLLKLRRYKDAARTFSSLIEREPKREIADEARFLLARAQNKAGNDDEAFLGFLKLAETAPTSEWADNALLEAAFVRKFQGRYADQLAVLEKLLTTYPGTKLKPRAMWETAWARYNTGDYRSAAESFRLLTASADYRERALYWHGRSLQRIGEETVARQSFAMLAEEYPFSFYTFTATDPAPQEGAIPLIVHDLRQTISPPAGHERARALIAMGLHDQARSELSIARKNGSSRGKGLLGIARLYLEMNDYSSAAAALRGEQPRRMDGETATTWGLLYPRGFSDSVAAEANRHTIPEELIYGLIKAESGFSPVALSPVGAVGLMQLMPSTAKGMVNGSSPANGISARLTDPTFNVGLGVRHLKDLLKQYNGNVVSAVAAYNAGSRPVDRWRRSLAGLREDEFIENIPYYETREYVKKVLTFAEVYRRLYRPAAPALAFLPQVSAPEPPQPAPTNNAPPTAALASPPETSALTAPVRQQP”, the protein production was “failed”. With “MYVTIVYASVKTDKTEAFKEATRMNHEQSIREPGNMRFDILQSADDPTRFVLYEAYKTRKDAAAHKETAHYLTWRDTVADWMAEPRKGVIYGGLYPTGDD” the protein production was “not failed”. In the case of “MYYKFGEIKNKIISFNGFEFKVSAMKKHDGISIQVKDMNNVPLKSFHVVDLSELYIAMDAMRDVINEWIEENTDERDRLINLVMRW”, the protein production is reported as “failed”. For “NANLDPKTRVLEHRLLAASSAIAEKLGVSAGDEVLLIRRLRSTGDIPVAILENYLPPAFNDVSLDELEKGGLYDALRSRGVVLKIANQKIGARRAVGEESTLLDIEDGGPLLTVERVALDNSGQVIELGSHCYRPDMYNFETTLVAR”, the protein production was “not failed”. In the case of “NAQARFSQNLLDQGSHPTSEKLLSVLRPASGHVADALGITEGENVIHLRTLRRVNGVALCLIDHYFADLTLWPTLQRFDSGSLHDFLREQTGIALRRSQTRISARRAQAKECQRLEIPNMSPLLCVRTLNHRDGESSPAEYSVSLTRADMIEFTMEH”, the protein production is reported as “not failed”. With “NCRLFIGGIPKMKKREEILEEIAKVTEGVLDVIVYASAADKMKNRGFAFVEYESHRAAAMARRKLMPGRIQLWGHQIAVDWAEPEIDVDEDVMETV” the protein production was “not failed”. In the case of “NDAIPTIFIHGYRGTDRSLHGMIRRFDQKYNWGTESLTVNVSPDGSISTTGTYSKNEKNPLINIVFEDNRATLPQQSMWTKKIMSYLQKNYDIKKFNAIGHSMGGGAWVSYLASYEKNKSYPQVNKIVFLAVPFYPEEYVNGDQQVDIKNANNVHAKFAQKMAKVLPDNTEIMIIGGDLEDGSNSDGEVKLNSVLYGQKLFAHQKVITHVIKGPKATHSSMHESTVVDKYVGQFLWGQK”, the protein production is reported as “failed”. In the case of “NEHEYAYIMQTSGSTGKPKRIAVSYSNLHCYISQIDKLFPLNAQDRVGQYSDLTFDLSVHDIFYSLISGACLYVVPELAKLSPAEFIHHHQLTVWLSVPTVIELALQRQTLTPHSLPSLRLSFFCGQALLHDLAEQWQQATQQPVINLYGPTECTIAVTYHRFVAHSGMASV”, the protein production is reported as “failed”. For “NEVDDMDTSDTQWGWFYLAECGKWHMFQPDTNSQCSVSSEDIEKSFKTNPCGSISFTTSKFSYKIDFAEMKQMNLTTGKQRLIKRAPFS”, the protein production was “not failed”. For “NGGIPHDNLVLIRMKPDENGRFGFNVKGGYDQKMPVIVSRVAPGTPADLCVPRLNEGDQVVLINGRDIAEHTHDQVVLFIKASCERHSGELMLLVRPNAVYDVVEE”, the protein production was “not failed”.
